Laboratory results as given in PMC6624267, “Structures of autoinhibited and polymerized forms of CARD9 reveal mechanisms of CARD9 and CARD11 activation” (Nature Communications, 2019).

Key:
[1] = target: the molecule itself; assay: negative-stain EM; CARD9^2–152 constructs purified 1:1 with Zn2+, Zn2+ removed with a twofold excess of EDTA, incubated at the indicated concentration, time and temperature; 50 mM HEPES, 150 mM NaCl, 0.5 mM TCEP, pH 7.0; step: dimers to filaments
[2] = target: the molecule itself; assay: NMR solution structure; CARD9^2−142 dimer, 1 mM with 1:1 ZnCl2, 50 mM HEPES, 300 mM NaCl, 0.5 mM TCEP, pH 7.0, 37 °C; intermolecular NOEs from a mixed labelled/unlabelled sample, RDCs
[3] = target: the molecule itself; assay: absorbance at 350 nm + other: negative-stain EM; CARD9^2−97 polymerisation: 1:1 Zn2+-bound CARD, EDTA added at t = 0; 50 mM Tris, 150 mM NaCl, 0.5 mM TCEP, pH 7.0, 25 °C, shaking; NS-EM grids at 90 min
[4] = target: the molecule itself; assay: negative-stain EM; CARD11^8−109 WT or mutants at 250 μM or 500 μM, 2 h at 25 °C, 50 mM HEPES, 50 mM NaCl, 0.5 mM TCEP, pH 7.0

B1: CARD9^2−152/L115I (domain or fragment, human, UniProt Q9H257 2-152, looked up)
chain: SDYENDDECWSVLEGFRVTLTSVIDPSRITPYLRQCKVLNPDDEEQVLSDPNLVIRKRKVGVLLDILQRTGHKGYVAFLESLELYYPQLYKKVTGKEPARVFSMIIDASGESGITQLLMTEVMKLQKKVQDLTALLSSKDDFIKELRVKDS
notes: not shown: 6xHis, N-terminal, cleaved
- binding result [1]: binds

B2: CARD9^2−142 (domain or fragment, human, UniProt Q9H257 2-142, looked up)
chain: SDYENDDECWSVLEGFRVTLTSVIDPSRITPYLRQCKVLNPDDEEQVLSDPNLVIRKRKVGVLLDILQRTGHKGYVAFLESLELYYPQLYKKVTGKEPARVFSMIIDASGESGLTQLLMTEVMKLQKKVQDLTALLSSKDD
notes: Isotope-labelled samples with 1:1 ZnCl2 for NMR; not shown: 6xHis, N-terminal, cleaved
- binding result [2]: binds

B3: CARD9^2−97 (CARD9 CARD alone), wild type (domain or fragment, human, UniProt Q9H257 2-97, looked up)
chain: SDYENDDECWSVLEGFRVTLTSVIDPSRITPYLRQCKVLNPDDEEQVLSDPNLVIRKRKVGVLLDILQRTGHKGYVAFLESLELYYPQLYKKVTGK
notes: CARD9, human, residues 2-97 (CARD); polymerisation started by EDTA; also called CARD9^2−97/WT; source: E. coli BL21(DE3), purified (Ni-NTA, TEV, Superdex 75); not shown: 6xHis, N-terminal, cleaved
- binding result [3]: binds

B4: CARD9^2−97/D43R/K58D (domain or fragment, human, UniProt Q9H257 2-97, looked up)
chain: SDYENDDECWSVLEGFRVTLTSVIDPSRITPYLRQCKVLNPRDEEQVLSDPNLVIRDRKVGVLLDILQRTGHKGYVAFLESLELYYPQLYKKVTGK
notes: CARD9, human, residues 2-97 (CARD); also called charge-swap mutant of the Type III interface; source: E. coli BL21(DE3), purified (Ni-NTA, TEV, Superdex 75; insoluble mutants under denaturing conditions); not shown: 6xHis, N-terminal, cleaved
- binding result [3]: binds

B5: CARD11^8−109 (CARD11 CARD), wild type (domain or fragment, human, UniProt Q9BXL7 8-109, looked up)
chain: MDDYMETLKDEEDALWENVECNRHMLSRYINPAKLTPYLRQCKVIDEQDEDEVLNAPMLPSKINRAGRLLDILHTKGQRGYVVFLESLEFYYPELYKLVTGK
notes: CARD11 (CARMA1), human, residues 8-109 (CARD); also called WT CARD11 CARD; source: E. coli BL21(DE3), purified (Ni-NTA, TEV, Superdex 75); not shown: 6xHis, N-terminal, cleaved
- binding result [4]: binds
